The source of these data is patent US5534418.

The term Kd denotes the constant that tells how readily two partners part at equilibrium. Lower therefore signals tighter binding.

This series has as its system T3 receptor (thyroid hormone receptor, GC2 pituitary cell nuclear extract) (Rattus norvegicus). Briefly: pulldown. The following applies: equilibrium binding constant printed as 1.4x10^-9 M, ABCD assay, poly(dI-dC), 22 C, data not shown.

Turning to G209-146 rat GH enhancer probe, the Kd was 1.4 nM.
